Results: article PMC2292230
Like-named read-outs stand apart in the source and are kept apart here.

How the values were obtained:
Test in all cases: SPR
[1] = molecular target: human CD1d Arg79 to Ala mutant loaded with α-GalCer (human)
[2] = molecular target: human CD1d Gln150 to Ala mutant loaded with α-GalCer (human)
[3] = molecular target: human CD1d Lys86 to Ala mutant loaded with α-GalCer (human)
[4] = molecular target: human CD1d Met87 to Ala mutant loaded with α-GalCer (human)
[5] = molecular target: human CD1d Val147 to Ala mutant loaded with α-GalCer (human)
[6] = molecular target: human CD1d loaded with α-GalCer, wild type (human) (UniProt P15813)
[7] = molecular target: human CD1d loaded with α-GalCer, wild type (human) (UniProt P15813); remark: listed apart in the source
[8] = molecular target: mouse CD1d loaded with α-GalCer (mouse) (UniProt P11609)
UniProt P11609, sequence (P11609 22-336): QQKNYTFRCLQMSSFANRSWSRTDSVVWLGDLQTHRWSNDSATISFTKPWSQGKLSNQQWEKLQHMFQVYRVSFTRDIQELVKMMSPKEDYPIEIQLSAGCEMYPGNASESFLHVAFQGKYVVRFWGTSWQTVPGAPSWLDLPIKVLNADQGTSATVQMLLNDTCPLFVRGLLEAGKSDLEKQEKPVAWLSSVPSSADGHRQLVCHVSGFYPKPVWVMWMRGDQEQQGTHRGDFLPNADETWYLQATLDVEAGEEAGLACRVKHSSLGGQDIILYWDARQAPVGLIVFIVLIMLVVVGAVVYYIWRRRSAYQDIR

UniProt P15813, sequence (P15813 20-301): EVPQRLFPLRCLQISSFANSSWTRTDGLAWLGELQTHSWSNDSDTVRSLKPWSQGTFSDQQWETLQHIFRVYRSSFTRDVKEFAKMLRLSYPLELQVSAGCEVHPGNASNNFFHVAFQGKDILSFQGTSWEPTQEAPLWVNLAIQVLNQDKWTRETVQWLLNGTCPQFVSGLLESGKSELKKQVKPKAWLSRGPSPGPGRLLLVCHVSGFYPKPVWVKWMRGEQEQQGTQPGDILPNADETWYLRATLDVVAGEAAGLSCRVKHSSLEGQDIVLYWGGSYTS

Substance | Kd [7] [nM] | Kd [8] [nM] | further results
human NKT TCR (NKT15) Gly96αAla mutant | 1070 | 1190 | –
human NKT TCR (NKT15) Asn53β to Ala mutant | 730 | 1190 | –
human NKT TCR (NKT15) Arg103α to Ala mutant | – | 2560 | –
human NKT TCR (NKT15) Ser30αAla mutant | – | 1160 | –
human NKT TCR (NKT15) Pro28αAla mutant | 5440 | 4750 | –

Now those with a lower Kd [8], led by results:

Kd [7] [nM] | Kd [8] [nM] | Substance | further results
460 | 940 | human NKT TCR (NKT15), wild type | Kd [1]: 350 nM; Kd [2]: 2500 nM; Kd [3]: 2830 nM; Kd [4]: 7900 nM; Kd [5]: 3600 nM; Kd [6]: 580 nM
710 | 820 | human NKT TCR (NKT15) Tyr103βAla mutant | –
– | 720 | human NKT TCR (NKT15) Glu56β to Ala mutant | –
